Reference: patent US20200353078A1 (AstraZeneca / MedImmune, published 2020)

Key:
Human IL-33 Flag®His [1] = biological target: T1, Human IL-33 Flag®His (human); assay: SPR BIAcore 2000, IgG captured on Protein G', IL-33 as analyte, 1:1 Langmuir
T1 construct: Mature IL-33 with C-terminal FLAG 10xHis tag, from E. coli; biotinylated via free cysteines where used biotinylated; also called Mature Human IL-33_FH; human IL-33 FH
T1 chain: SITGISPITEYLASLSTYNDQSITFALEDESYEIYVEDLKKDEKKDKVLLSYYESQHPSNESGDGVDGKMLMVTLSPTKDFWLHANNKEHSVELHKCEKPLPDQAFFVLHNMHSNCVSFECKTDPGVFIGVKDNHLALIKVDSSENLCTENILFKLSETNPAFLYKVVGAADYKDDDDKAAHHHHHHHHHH
Procedure: (§1) The binding affinity of purified IgG samples of exemplary binding members to human and cynomolgus IL-33 was determined by surface plasmon resonance using BIAcore 2000 biosensor (BIAcore AB) essentially as described by Karlsson et al., J Immunol Methods 145(1-2):229-40 (1991). In brief, Protein G′ (Sigma Aldrich, P4689) was covalently coupled to the surface of a CM5 sensor chip using standard amine coupling reagents according to manufacturer's instructions (BIAcore). The protein G′ surface was used to capture purified anti-IL-33 antibodies via the Fc domain to provide a surface density of approximately 290 RU per cycle. Human or cynomolgus IL-33 prepared in HBS-EP buffer (BIAcore AB), at a range of concentrations, between 600 nM and 18.75 nM, were passed over the sensor chip surface. The surface was regenerated using two 10 mM Glycine washes of pH 1.7 and pH 1.5 between each injection of antibody. The resulting sensorgrams were evaluated using BIA evaluation 3.1 software and fitted to a 1:1 Langmuir binding model, to provide relative binding data. The binding results (KD, Ka, and Kd) for antibodies IL330002 and IL330004 binding to human or cynomolgus IL-33 are shown in Table 8.

[2] = biological target: T2, Cynomolgus IL-33 Flag®His (cynomolgus monkey); assay: as above
T2 construct: C-terminal FLAG 10xHis tag, E. coli; also called Mature Cynomolugus IL-33; cyno IL-33 FH
T2 chain: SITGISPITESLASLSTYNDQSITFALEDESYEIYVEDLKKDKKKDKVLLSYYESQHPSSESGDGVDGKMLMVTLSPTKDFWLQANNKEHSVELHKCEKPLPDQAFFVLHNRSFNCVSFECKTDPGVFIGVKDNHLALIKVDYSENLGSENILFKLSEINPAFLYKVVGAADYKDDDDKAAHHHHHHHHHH
Procedure: as §1

Human IL-33 Flag®His [3] = biological target: T1, Human IL-33 Flag®His; assay: cell-based or functional assay
Human IL-33 Flag®His [4] = biological target: T1, Human IL-33 Flag®His; assay: HTRF competition, IgG titrated against biotinylated human ST2-Fc
Procedure: (§2) The ability of anti-IL-33 antibodies to inhibit the binding of FLAG®-His tagged IL-33 to the ST2 receptor was assessed in a biochemical HTRF® (Homogeneous Time-Resolved Fluorescence, Cisbio International) competition assay, the principles of which are described above.
(§3) Activity of purified IgG preparations were determined by competing a dilution series of the purified IgG against biotinylated human or mouse ST2.Fc for binding to FLAG® His-tagged human, cynomolgus or mouse IL-33.
(§4) Purified or unpurified anti-IL-33 antibody samples were tested for inhibition of FLAG®-His tagged IL-33 binding ST2-Fc by adding 10 microlitres of each dilution of antibody test sample to a 384 well low volume assay plate (Costar 3676). Next, a solution containing 4 nM biotinylated human or mouse ST2-Fc and 20 nM streptavidin XL665 detection (Cisbio International, 611SAXLB) was prepared and 5 microlitres of the mix added to the assay plate. This was followed by the addition of 5 microlitres of a solution containing 1.2 nM FLAG®-His tagged human, cynomolgus or mouse IL-33 combined with 1.72 nM anti-FLAG® cryptate detection (Cisbio International, 61FG2KLB). All dilutions were performed in assay buffer comprised of Dulbeccos PBS (Invitrogen, 14190185) containing 0.8 M potassium fluoride (BDH 103444T) and 0.1% BSA (Sigma A9576). Assay plates were incubated for 2 hour at room temperature followed by 16 hour at 4° C. before reading time resolved fluorescence at 620 nm and 665 nm emission wavelengths using an EnVision plate reader (Perkin Elmer).

[5] = biological target: T2, Cynomolgus IL-33 Flag®His; assay: as above
Procedure: as §2, §3, §4

[6] = biological target: T3, Human IL-33 (Axxora/Adipogen AG-40B-0038) (human, UniProt O95760 112-270, limits assumed); assay: cell-based or functional assay
T3 sequence (looked up): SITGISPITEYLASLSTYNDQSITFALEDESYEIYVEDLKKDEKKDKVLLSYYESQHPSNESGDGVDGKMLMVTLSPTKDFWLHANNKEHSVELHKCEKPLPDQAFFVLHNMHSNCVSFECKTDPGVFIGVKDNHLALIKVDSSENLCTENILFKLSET

[7] = biological target: T3, Human IL-33 (Axxora/Adipogen …); assay: cell-based or functional assay; remark: listed apart in the source
[8] = biological target: T3, Human IL-33 (Axxora/Adipogen …); assay: HTRF epitope competition: unlabelled IgG against DyLight labelled H338L293 for biotinylated human IL-33
33_640237-2B IgG1 = biological target: T4, 33_640237-2B IgG1; assay: HTRF: unlabelled test protein competes with biotinylated human IL33-01 for DyLight650 labelled 33_640237-2B IgG
T4 construct: IgG1
Procedure: Human, cyno and mouse IL-33 FLAG® His (described in Example 1 and Table 21), Human IL-1 alpha and IL-1 beta (R&D Systems) (Table 21) or rat IL-33 (GenScript) were tested for inhibition of human IL-33 binding to DyLight650 labelled 33_640087-7B or DyLight650 labelled 33_640237-2B by adding 5 microlitres of each dilution of sample to a 384 well low volume assay plate (Costar, 3673). […] This was followed by the addition of 2.5 microlitres of a solution containing 0.12 nM biotinylated human IL-33-01 combined with 0.75 nM streptavidin cryptate detection (Cisbio International, 610SAKLB). All dilutions were performed in assay buffer containing 0.8 M potassium fluoride (VWR, 26820.236) and 0.1% bovine serum albumin (BSA, PAA, K05-013) in Dulbeccos PBS (Invitrogen, 14190185). Assay plates were incubated for 4 hours at room temperature followed by 18 hours at 4 degrees Celsius and time resolved fluorescence was read at 620 nm and 665 nm emission wavelengths using an EnVision plate reader (Perkin Elmer). Data were analysed by calculating the 665/620 nm ratio followed by the % Delta F values for each sample. The 665/620 nm ratio was used to correct for sample interference using Equation 1. The % Delta F for each sample was then calculated using Equation 2. The negative control (non-specific binding) was defined by replacing biotinylated human IL-33 combined with streptavidin cryptate detection with streptavidin cryptate detection only. The % Delta F values were subsequently used to calculate % specific binding as described in Equation 3. IC₅₀ values were determined using GraphPad Prism software by curve fitting using a four-parameter logistic equation (Equation 4).

Human ST2 ECD-Flag-his10 = biological target: T5, Human ST2 ECD-Flag-his10 (human, UniProt Q01638 19-328); assay: SPR Biacore T100, 25 C, biotinylated human IL-33 on streptavidin C1 chip, ST2-Flag-His10 as analyte
T5 construct: also called Human ST2 Flag His; FLAG® His-tagged human ST2
T5 sequence: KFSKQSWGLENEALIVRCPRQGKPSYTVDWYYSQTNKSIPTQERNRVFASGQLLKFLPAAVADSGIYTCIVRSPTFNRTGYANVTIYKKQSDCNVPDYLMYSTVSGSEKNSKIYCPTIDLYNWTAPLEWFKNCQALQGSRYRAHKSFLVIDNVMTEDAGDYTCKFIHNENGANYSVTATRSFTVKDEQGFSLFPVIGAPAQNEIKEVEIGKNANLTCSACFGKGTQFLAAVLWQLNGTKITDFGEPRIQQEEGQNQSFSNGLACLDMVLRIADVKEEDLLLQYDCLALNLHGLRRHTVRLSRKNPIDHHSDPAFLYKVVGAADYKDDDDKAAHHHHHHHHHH
Procedure: Fab fragments were generated by papain cleavage from full length IgG1 and purified by SEC. […] Streptavidin was covalently immobilised to a C1 chip surface using standard amine coupling techniques at a concentration of […] in 10 mM Sodium acetate pH 4.5. […] Recombinant, enzymatically biotinylated human IL-33 (produced in-house) was titrated onto the streptavidin chip surface at […] in HBS-EP+ buffer to enable ˜30 RUs of Fab binding at saturation (Rmax). This low level of analyte binding ensured minimal mass transport effects.
The IL-33 Fab was serially diluted from 5 nM to 78 pM in HBS-EP+ buffer and flowed over the chip at 50 μl/min, with 3 minutes association and up to 30 minutes dissociation. Multiple buffer only injections were made under the same conditions to allow for double reference subtraction of the final sensorgram sets, which were analysed using the BiaEval software (version 2.0.1). The chip surface was fully regenerated with pulses of 3M MgCl₂.
The affinity of ST2-Flag-His10 (SEQ. ID no. 650) expressed in HEK-EBNA cells for human IL-33 was determined by BIACORE™ using the same methods described above.

B1: IL330002 IgG1 (antibody, V domains shown)
VH: not shown
VL: SYELTQPPSLSVSPGQTASITCSGDKLGDKYVSWYQQKPGQSPILVIYHDNKRPSGIPERFSGSNSGNTATLTISGTQAMDEADYYCQAWDSNAGYVFGTGTKVTVL
notes: Human IgG1, lambda constant
Work on B1 yielded a Kd (Human IL-33 Flag®His [1]) of 35 nM, a koff (Human IL-33 Flag®His [1]) of 0.00218 s⁻¹ and a kon (Human IL-33 Flag®His [1]) of 61600 M⁻¹ s⁻¹. It also gave a Kd [2] of 189 nM, a koff [2] of 0.00442 s⁻¹ and a kon [2] of 23400 M⁻¹ s⁻¹. The “IC50, human ST2 transfected HeLa NFkB luciferase reporter assay” value (Human IL-33 Flag®His [3]) was 226 nM, the IC50 (Human IL-33 Flag®His [4]) was 27 nM and the IC50 [5] was 42 nM.

B2: H338L293 IgG1 (as in Table 13) (antibody, V domains shown)
VH: EVQLLESGGGLVQPGGSLRLSCAASGFTFSSYAMSWVRQAPGKGLEWVSAISPREGWQYYADSVKGRFTISRDNSKNTLYLQMNSLRAEDTAVYYCVRVVAGYFDSWGRGTLVTVSS
VL: SYVLTQPPSVSVSPGQTARITCSGDALPKQYAHWYQQKPGQAPALVIYKDTERPSGIPERFSGSSSGTTVTLTISGVQAEDEADYYCMSSDPSGASRVFGGGTKVTVL
notes: IgG1
In the case of B2, the “IC50, Huvec IL-6 production” value [6] is reported as 1.9 nM, the “IC50, Mast cell IL-6 production” value [6] is reported as 1.7 nM and the “Huvec IL-6 production, maximum inhibition” value [7] is reported as about 70%. The “Mast cell IL-6 production, inhibition” value [7] was 100% and the “IC50 (read off the curve)” value [8] was about 1 nM.

B3: IL330388 IgG1 (antibody, V domains shown)
VH: EVQLLESGGGLVQPGGSLRLSCAASGFTFSSYAMSWVRQAPGKGLEWVSASTPWQGSTYYADSVKGRFTISRDNSKNTLYLQMNSLRAEDTAVYYCVRWYWGWIDSWGRGTLVTVSS
VL: SYVLTQPPSVSVSPGQTARITCSGDALPKQYAHWYQQKPGQAPALVIYKDTERPSGIPERFSGSSSGTTVTLTISGVQAEDEADYYCMSSDPSGASRVFGGGTKVTVL
notes: IgG1; also called IL3300388
B3 was tested, and the “Huvec IL-6 production, maximum inhibition” value [7] was about 70%, the “Mast cell IL-6 production, inhibition” value [7] was 100% and the “IC50 (read off the curve)” value [8] was about 1 nM.

B4: IL330396 IgG1 (antibody, V domains shown)
VH: EVQLLESGGGLVQPGGSLRLSCAASGFTFSSYAMSWVRQAPGKGLEWVSASTPWQGSTYYADSVKGRFTISRDNSKNTLYLQMNSLRAEDTAVYYCVRWYWGWIDSWGRGTLVTVSS
VL: SYVLTQPPSVSVSPGQTARITCSGDALPKQYAHWYQQKPGQAPALVIYKDTERPSGIPERFSGSSSGTTVTLTISGVQAEDEADYYCMSSDDTGASRVFGGGTKVTVL
notes: IgG1; also called IL3300396
In the case of B4, the “Huvec IL-6 production, maximum inhibition” value [7] is reported as about 70%, the “Mast cell IL-6 production, inhibition” value [7] is reported as 100% and the “IC50 (read off the curve)” value [8] is reported as about 1 nM.

B5: IL330071 IgG1 (antibody, V domains shown)
VH: EVQLVESGAEVKQPGASVKVSCKASGYTFTSYGISWVRQAPGQGLEWMGWISAYNGNTNYAQKLQGRVTMTTDTSTSTAYMELRSLRSDDTAVYYCARRGFYHDAFDIWGRGTTVTVSS
VL: AIQLTQSPSSLSASVGDRVTITCRASQGISNYLAWYQQKPGKVPKLLIYAASTLQSGVPSRFSGSGSGTEFTLTISSLQPDDFATYYCQQYNSYSVTFGQGTKVEIK
notes: Human IgG1, lambda constant
For B5, the “IC50, human ST2 transfected HeLa NFkB luciferase reporter assay” value (Human IL-33 Flag®His [3]) was 226 nM, the IC50 (Human IL-33 Flag®His [4]) was 59 nM and the IC50 [5] was 375 nM.

B6: Mouse IL-33 Flag®His (ligand)
chain: SIQGTSLLTQSPASLSTYNDQSVSFVLENGCYVINVDDSGKDQEQDQVLLRYYESPCPASQSGDGVDGKKLMVNMSPIKDTDIWLHANDKDYSVELQRGDVSPPEQAFFVLHKKSSDFVSFECKNLPGTYIGVKDNQLALVEEKDESCNNIMFKLSKINPAFLYKVVGAADYKDDDDKAAHHHHHHHHHH
notes: C-terminal FLAG 10xHis tag, E. coli; also called Mature Mouse IL-33_FH; mouse IL-33 FH
B6: no binding (tested: about 10^-5.5 M) (33_640237-2B IgG1).

B7: Recombinant human IL-33 (construct not named in the example) (ligand, UniProt O95760 112-270, looked up)
chain: SITGISPITEYLASLSTYNDQSITFALEDESYEIYVEDLKKDEKKDKVLLSYYESQHPSNESGDGVDGKMLMVTLSPTKDFWLHANNKEHSVELHKCEKPLPDQAFFVLHNMHSNCVSFECKTDPGVFIGVKDNHLALIKVDSSENLCTENILFKLSET
notes: also called Recombinant, enzymatically biotinylated human IL-33 (produced in-house); IL-33 (200 nM)
In the case of B7, the Kd (Human ST2 ECD-Flag-his10) is reported as 0.0029 nM, the koff (Human ST2 ECD-Flag-his10) is reported as 4.35e-05 s⁻¹ and the kon (Human ST2 ECD-Flag-his10) is reported as 1.52e+07 M⁻¹ s⁻¹.
